For assay [1], the target named is MUC1* on cancer cells and tumour sections (UniProt P15941). Nature of the assay: IHC with C2 on untreated H1975-wt lung tumors excised from mice.
The target is the same in assay [2]. As to the kind of experiment: IHC with C2 on untreated HPAFII-wt pancreatic tumors excised from mice.
The target in assay [3] is T1, PSMGFR C-10 peptide.
T1 peptide: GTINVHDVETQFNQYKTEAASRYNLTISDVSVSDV
As to the kind of experiment: ELISA on PSMGFR C-10 peptide; Table 4 grade. A general note: In an ELISA, binding on a coated surface is turned into a signal by an enzyme label.

Assay [4] addresses MUC1* on cancer cells and tumour sections (UniProt P15941). As to the kind of experiment: IHC with C2 on untreated T47D-wt breast tumors excised from mice.
Assay [5] addresses T2, PSMGFR N-10 peptide.
T2 peptide: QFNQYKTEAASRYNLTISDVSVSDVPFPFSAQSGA
Nature of the assay: ELISA on PSMGFR N-10 peptide; Table 4 column 'Binds N-10', grade.

Assay [6] addresses T3, PSMGFR peptide.
T3 construct: also called PSMGFR 45mer
T3 peptide: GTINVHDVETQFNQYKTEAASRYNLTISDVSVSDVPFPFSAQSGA
As to the kind of experiment: peptide binding assay (FIGS. 1A, 1B).

The target of assay [7] is T4, PSMGFR N-19 C-5 peptide.
T4 peptide: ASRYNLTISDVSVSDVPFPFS
As to the kind of experiment: peptide binding assay (FIGS. 2A, 2B).

Assay [8] concerns the target T5, PSMGFR N-30 peptide.
T5 peptide: SVSDVPFPFSAQSGA
Nature of the assay: peptide binding assay (FIGS. 2A, 2B).

Assay [9] concerns T47D xenograft tumors. Nature of the assay: T47D breast cancer xenograft. In kind it is in vivo, NOD/SCID mice. Conditions: intraperitoneal; MMAE ADCs 5-10 mg/kg Days 7, 14, 20; deruxtecan/exatecan ADCs 20 mg/kg weekly x7. Here is the method:
(§1) For breast cancer xenografts, female NOD/SCID mice (weight 18-22 g, 6-8 weeks old, Charles River Laboratories) previously implanted with a 90-day release estrogen pellet (Innovative Research Laboratories) were subcutaneously injected under isoflurane anesthesia (ISOTHESIA, 250 ml (HENRY SCHEIN, NDC: 11695-6776-2) with one million luciferase-positive T47D breast cancer cells expressing low levels of MUC1*(ATCC) or one million luciferase-positive T47D-MUC1* cells overproducing MUC1* using a BD 26G Insulin Syringes with Detachable Needle (Fisher cat: 329652) or BD 28G Lo-Dose U-100 Insulin Syringes (Fisher cat: 329461).
(§2) Tumor volume was measured from bioluminescence images acquired with a Xenogen IVIS-Spectrum system (Perkin Elmer). Mice were injected […] into the scruff of the neck with 150 ul, 30 mg/mL, D-Luciferin (XenoLight™ D-Luciferin Potassium Salt; PerkinElmer P/N 122799), placed under isoflurane anesthesia, and photographed within 10 minutes of the Leciferin injection. Data was expressed graphically as Radiance (photons/sec) as a function of days post-tumor implantation.
(§3) Tumor mass was determined from tumors excised from mice receiving T47D cells on Day 95 and mice receiving T47D-MUC1* cells on Day 96. […]

Assay [10] relates to T47D-MUC1*. As to the kind of experiment: PrestoBlue live/dead cell assay, T47D-MUC1*. To be noted: Presto Blue; 72-120 hour incubation. Type of assay: cell-based, human. Here is the method: (§4) Another method of measuring the killing activity of ADCs against target cancer cells is to use the PrestoBlue live/dead cell assay (ThermoFisher). Target cancer cells were seeded in a black-walled, clear-bottom 96-well tissue culture plate at a density of 5000 cells/well (100 μL of a 50,000 cells/mL stock) and incubated overnight in a 37° C./5% CO2 incubator. ADCs were prepared as a 2× solution in corresponding cancer cell growth media and 100 μL of each concentration was added to target cancer cells. As a positive control (100% killing) cancer cells were treated with 1 μM Taxol instead of ADC. After 72 hour-120 hour incubation in a 37° C./5% CO2 incubator, cell viability was measure by fluorescence using the PrestoBlue HS assay (ThermoFisher). Briefly, after the incubation period, 20 μL of PrestoBlue HS solution was added. Fluorescence (Ex 560 nm/Em 590 nm) was recorded after 30-90 min. incubation using a Tecan plate reader. Percentage viability was determined by PrestoBlue HS staining and normalized to 1 μM taxol treated cells.
(§5) The normalized fluorescence values were imported into the graph program, Sigma Plot, data plotted as ADC concentration versus normalized fluorescence signal and curve fitted using a four-parameter Hill equation: f=y0+a*x^b/(c^b+x^b) to calculate IC50 values. IC50 values for the ADCs were generally consistent between the xCELLigence and Presto Blue assays.

For assay [11], the system named is HPAFII-MUC1*. Nature of the assay: PrestoBlue live/dead cell assay, HPAFII-MUC1*. In kind it is cell-based, human. To be noted: Presto Blue; 72-120 hour incubation. The method, then: as §4, §5
In assay [12] the test system is H1975. As to the kind of experiment: PrestoBlue live/dead cell assay, H1975. Type of assay: cell-based, human. Conditions: Presto Blue; 72-120 hour incubation. Here is the method: as §4, §5
Assay [13] concerns T47D-MUC1* xenograft tumors. Nature of the assay: T47D-MUC1* breast cancer xenograft. In kind it is in vivo, NOD/SCID mice. Conditions: intraperitoneal; MMAE ADCs 5-10 mg/kg Days 7, 14, 20; deruxtecan/exatecan ADCs 20 mg/kg weekly x7. Here is the method:
as §1, §2, §3

The test system of assay [14] is HPAFII. Nature of the assay: PrestoBlue live/dead cell assay, HPAFII. Type of assay: cell-based, human. Conditions: Presto Blue; 72-120 hour incubation. The method, then: as §4, §5
Assay [15] relates to NCI-H1975. Nature of the assay: xCELLigence impedance cytotoxicity, NCI-H1975. Type of assay: cell-based, human. To be noted: xCELLigence; 40-120 hours incubation; read-out: IC50, NCI-H1975. Here is the method:
(§6) An xCELLigence RTCA MP Instrument (Agilent) was used to assess real-time killing of target cancer cells). In the xCELLigence system, target cancer cells, which are adherent, are plated onto electrode array 96-well plates. Adherent cells insulate the electrode and increase the impedance. The number of adherent cancer cells is directly proportional to impedance. […] Therefore, increasing impedance reflects the growth of the cancer cells and decreasing impedance reflects the killing of the cancer cells.
(§7) Target Cancer cells (Table 9) were seeded onto a multi-electrode well plate at a density of 5000 cells/well (100 μL of a 50,000 cells/mL stock) and incubated for 24 hr in a 37° C./5% CO2 incubator. ADCs were prepared as a 2× solution in corresponding growth media and 100 μL of each concentration was added to target cells. As a positive control (100% cell killing) cells were treated with either 1% triton or 1 μM Taxol instead of ADC. After 40-120 hours incubation in a 37° C./5% CO2 incubator cell killing was assessed. In this assay, impedance is measured in real-time. When the adherent cancer cells are killed and come off the electrode surface, impedance (insulation) decreases.

For assay [16], the system named is T47D-MUC1*. As to the kind of experiment: xCELLigence impedance cytotoxicity, T47D-MUC1*. Type of assay: cell-based, human. Conditions: xCELLigence; 40-120 hours incubation; read-out: IC50, T47D-MUC1*. The method, then:
as §6, §7

In assay [17] the test system is T47D. Nature of the assay: xCELLigence impedance cytotoxicity, T47D. In kind it is cell-based, human. Conditions: xCELLigence; 40-120 hours incubation; read-out: IC50, T47D. Here is the method: as §6, §7
The subject of assay [18] is T47D. Nature of the assay: PrestoBlue live/dead cell assay, T47D. Type of assay: cell-based, human. To be noted: Presto Blue; 72-120 hour incubation. The method, then:
as §4, §5

B1: anti-MUC1* antibody C2 (antibody)
VH: EVQLEESGGGLVKPGGSLKLSCAASGFTFSGYAMSWVRQTPEKRLEWVATISSGGTYIYYPDSVKGRFTISRDNAKNTLYLQMSSLRSEDTAMYYCARLGGDNYYEYFDVWGAGTTVTVSSAKTTPPSVYPLAPGSAAQTNSMVTLGCLVKGYFPEPVTVTWNSGSLSSGVHTFPAVLQSDLYTLSSSVTVPSSTWPSETVTCNVAHPASSTKVDKKIVPRDCGCKPCICTVPEVSSVFIFPPKPKDVLTITLTPKVTCVVVDISKDDPEVQFSWFVDDVEVHTAQTQPREEQFNSTFRSVSELPIMHQDWLNGKEFKCRVNSAAFPAPIEKTISKTKGRPKAPQVYTIPPPKEQMAKDKVSLTCMITDFFPEDITVEWQWNGQPAENYKNTQPIMDTDGSYFVYSKLNVQKSNWEAGNTFTCSVLHEGLHNHHTEKSLSHSPGK
VL: DIVITQSTASLGVSLGQRATISCRASKSVSTSGYSYMHWYQQRPGQPPKLLIYLASNLESGVPARFSGSGSGTDFTLNIHPVEEEDAATYYCQHSRELPFTFGGGTKLEIKRADAAPTVSIFPPSSEQLTSGGASVVCFLNNFYPKDINVKWKIDGSERQNGVLNSWTDQDSKDSTYSMSSTLTLTKDEYERHNSYTCEATHKTSTSPIVKSFNRNEC
notes: Monoclonal antibody raised against the PSMGFR peptide; also called mAb C2; IgG1 C2 antibody
For the molecule B1, the H-score came to 40 in assay [1], 220 in assay [2] and 10 in assay [4]. Besides, the binding result in assay [3] is “no binding”.

B2: anti-MUC1* antibody 3C2B1 (antibody, V domains shown)
VH: EVMLVESGGGLVKPGGSLKLSCAASGITFSTYTMSWVRQTPEKRLEWVATISTGGDKTYYSDSVKGRFTISRDNAKNNLYLQMSSLRSEDTALYYCARGTTAMYYYAMDYWGQGTSVTVSS
VL: DIVLTQSPASLAVSLGQRATISCRASKSISTSDYNYIHWYQQKPGQPPKLLIYLASNLESGVPARFSGSGSGTDFTLNIHPVEEEDAATYYCQHSRELPLTFGAGTKLELK
notes: Humanised form is m27; also called 32CB1
Regarding B2, the binding result in assay [5] is recorded as “binds”; in [6], “binds”; in assay [3], “no binding”; in assay [7], “binds”; in assay [8] it was “binds”.

B3: C2 MC-VC-PAB MMAE (conjugate, listed as Mus sp.)
heavy: EVQLEESGGGLVKPGGSLKLSCAASGFTFSGYAMSWVRQTPEKRLEWVATISSGGTYIYYPDSVKGRFTISRDNAKNTLYLQMSSLRSEDTAMYYCARLGGDNYYEYFDVWGAGTTVTVSSAKTTPPSVYAKTTPPSVYPLAPGSAAQTNSMVTLGCLVKGYFPEPVTVTWNSGSLSSGVHTFPAVLQSDLYTLSSSVTVPSSTWPSETVTCNVAHPASSTKVDKKIVPRDCGCKPCICTVPEVSSVFIFPPKPKDVLTITLTPKVTCVVVDISKDDPEVQFSWFVDDVEVHTAQTQPREEQFNSTFRSVSELPIMHQDWLNGKEFKCRVNSAAFPAPIEKTISKTKGRPKAPQVYTIPPPKEQMAKDKVSLTCMITDFFPEDITVEWQWNGQPAENYKNTQPIMDTDGSYFVYSKLNVQKSNWEAGNTFTCSVLHEGLHNHHTEKSLSHSPGK
light: DIVITQSTASLGVSLGQRATISCRASKSVSTSGYSYMHWYQQRPGQPPKLLIYLASNLESGVPARFSGSGSGTDFTLNIHPVEEEDAATYYCQHSRELPFTFGGGTKLEIKRADAAPTVSADAAPTVSIFPPSSEQLTSGGASVVCFLNNFYPKDINVKWKIDGSERQNGVLNSWTDQDSKDSTYSMSSTLTLTKDEYERHNSYTCEATHKTSTSPIVKSFNRNEC
modifications: MC-VC-PAB-MMAE
notes: ADC: anti-MUC1* antibody C2 conjugated via MC-VC-PAB linker to MMAE
A word on the IC50: it is the concentration at which inhibition is half-maximal. Take B3: the “growth of T47D xenograft tumors” value in assay [9] is on record as “inhibit the growth”. The IC50 is 0.0026 µM in assay [10]; 0.063 µM in assay [11]; 0.089 µM in assay [12]; 0.112 µM in assay [14]; 0.023 µM in assay [15]; 0.0018 µM in assay [16]. For the same molecule, the IC50 in assay [17] came to 0.156 µM; in assay [18], 0.187 µM. The “growth of T47D-MUC1* xenograft tumors” value in [13] is “inhibit the growth”.

The values above are taken from US20260137799A1, “ANTI-MUC1* ANTIBODY DRUG COMPLEXES AND USES THEREOF” (Minerva Biotechnologies Corporation, priority 2023, published 2026).
